Data set [1] addresses ATRX full length (UniProt P46100). The data set can be described thus: filter.
The target is the same in data set [2]. Description: FP.

Drawing on patent publication US20170335317, this text covers Kd for 9 substances.

UniProt P46100, sequence (P46100 whole entry): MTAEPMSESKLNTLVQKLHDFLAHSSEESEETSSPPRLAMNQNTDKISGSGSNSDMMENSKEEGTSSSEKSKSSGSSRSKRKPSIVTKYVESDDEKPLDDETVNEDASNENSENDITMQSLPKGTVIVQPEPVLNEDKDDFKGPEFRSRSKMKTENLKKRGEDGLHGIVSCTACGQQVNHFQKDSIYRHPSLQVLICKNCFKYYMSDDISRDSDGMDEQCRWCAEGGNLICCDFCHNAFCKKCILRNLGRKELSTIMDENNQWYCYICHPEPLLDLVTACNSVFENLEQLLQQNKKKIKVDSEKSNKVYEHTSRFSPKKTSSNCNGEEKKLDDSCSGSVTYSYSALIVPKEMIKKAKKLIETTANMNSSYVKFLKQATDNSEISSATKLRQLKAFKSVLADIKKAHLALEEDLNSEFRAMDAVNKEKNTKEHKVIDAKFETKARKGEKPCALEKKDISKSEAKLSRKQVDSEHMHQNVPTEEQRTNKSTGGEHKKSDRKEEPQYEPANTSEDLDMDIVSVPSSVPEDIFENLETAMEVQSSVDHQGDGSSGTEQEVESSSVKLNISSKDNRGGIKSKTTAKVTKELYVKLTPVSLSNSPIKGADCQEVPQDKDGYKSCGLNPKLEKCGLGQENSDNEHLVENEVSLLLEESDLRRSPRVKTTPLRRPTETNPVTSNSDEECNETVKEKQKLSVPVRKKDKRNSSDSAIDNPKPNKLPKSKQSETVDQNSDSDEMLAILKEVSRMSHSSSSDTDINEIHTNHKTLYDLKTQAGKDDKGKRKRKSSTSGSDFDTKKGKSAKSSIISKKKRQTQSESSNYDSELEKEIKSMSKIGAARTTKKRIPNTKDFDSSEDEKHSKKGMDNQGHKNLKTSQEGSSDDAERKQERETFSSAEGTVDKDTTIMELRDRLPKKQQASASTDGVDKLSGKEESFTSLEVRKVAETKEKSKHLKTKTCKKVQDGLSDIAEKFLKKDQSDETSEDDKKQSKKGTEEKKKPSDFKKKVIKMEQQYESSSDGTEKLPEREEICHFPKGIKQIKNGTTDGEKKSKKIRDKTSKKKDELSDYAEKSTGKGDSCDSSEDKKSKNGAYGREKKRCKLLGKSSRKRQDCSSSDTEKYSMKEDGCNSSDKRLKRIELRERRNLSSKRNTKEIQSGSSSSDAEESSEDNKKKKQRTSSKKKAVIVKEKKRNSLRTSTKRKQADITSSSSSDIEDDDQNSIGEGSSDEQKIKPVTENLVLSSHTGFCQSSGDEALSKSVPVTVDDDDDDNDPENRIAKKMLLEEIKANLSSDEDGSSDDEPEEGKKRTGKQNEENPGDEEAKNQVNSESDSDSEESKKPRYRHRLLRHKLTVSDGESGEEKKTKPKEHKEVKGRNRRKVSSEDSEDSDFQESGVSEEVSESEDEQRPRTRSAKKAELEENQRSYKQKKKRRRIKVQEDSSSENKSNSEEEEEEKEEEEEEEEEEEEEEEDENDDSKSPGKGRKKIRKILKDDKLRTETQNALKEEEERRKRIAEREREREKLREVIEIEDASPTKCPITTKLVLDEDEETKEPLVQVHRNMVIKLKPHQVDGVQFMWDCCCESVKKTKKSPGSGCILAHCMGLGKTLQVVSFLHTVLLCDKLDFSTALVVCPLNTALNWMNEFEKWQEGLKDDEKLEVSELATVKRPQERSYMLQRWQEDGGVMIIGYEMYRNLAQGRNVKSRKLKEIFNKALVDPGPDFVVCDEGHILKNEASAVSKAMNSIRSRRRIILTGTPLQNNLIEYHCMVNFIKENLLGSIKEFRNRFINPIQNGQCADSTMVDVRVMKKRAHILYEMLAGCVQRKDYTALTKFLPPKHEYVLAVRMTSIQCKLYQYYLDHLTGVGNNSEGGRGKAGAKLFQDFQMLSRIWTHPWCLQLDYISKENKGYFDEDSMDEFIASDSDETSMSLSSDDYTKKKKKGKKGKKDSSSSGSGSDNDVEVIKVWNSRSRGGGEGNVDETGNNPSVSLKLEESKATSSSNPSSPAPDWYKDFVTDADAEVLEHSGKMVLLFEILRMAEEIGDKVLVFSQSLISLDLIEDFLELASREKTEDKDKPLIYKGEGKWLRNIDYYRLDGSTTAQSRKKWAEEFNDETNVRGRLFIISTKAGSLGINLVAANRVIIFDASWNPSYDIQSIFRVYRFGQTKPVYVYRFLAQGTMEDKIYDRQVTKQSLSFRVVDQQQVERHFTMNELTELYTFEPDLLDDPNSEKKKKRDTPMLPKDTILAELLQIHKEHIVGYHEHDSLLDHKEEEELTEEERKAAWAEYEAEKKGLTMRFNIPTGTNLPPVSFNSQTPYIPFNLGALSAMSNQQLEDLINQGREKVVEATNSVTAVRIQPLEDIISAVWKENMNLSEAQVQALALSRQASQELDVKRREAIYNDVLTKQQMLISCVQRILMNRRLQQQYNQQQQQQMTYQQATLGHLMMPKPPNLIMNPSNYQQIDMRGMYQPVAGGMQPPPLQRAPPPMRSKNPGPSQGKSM

In general, Kd refers to the free concentration of one partner at which half of the binding sites on the other are occupied at equilibrium, for simple one-to-one binding. Low values mean tighter binding, high ones weaker binding. Consider MBP dsDNA, for which the Kd with ATRX full length [1] (Kd>>200 nM) was > 200 nM.
As to Xist Repeat A I-IV RNA, the equilibrium dissociation constant (Kd) with ATRX full length [2] worked out at 5.41 nM.
As to P4-P6 ribozyme RNA, the dissociation constant (Kd) with ATRX full length [1] (Kd>>200 nM) was > 200 nM.
For Repeat A ssDNA, the dissociation constant Kd with ATRX full length [1] (could not bind well, Kd>>200 nM) is > 200 nM.
Turning to Repeat A dsDNA, in the data set with ATRX full length [1] (unit not printed with value, nM by context), the Kd is 15.7 nM.
Substance Repeat A I-II RNA registered a Kd in the data set with ATRX full length [1] (+/-0.89, double-filter binding) of 9.96 nM.
In the data set with ATRX full length [1] (+/-3.35, double-filter binding), Repeat A III-IV RNA returned a Kd of 17.9 nM.
Regarding Hotair dsDNA, the Kd with ATRX full length [1] (Kd>>200 nM) is > 200 nM.
On the same count and under the same terms, next, MBP mRNA first 300 nt: > 200 nM.
